Consider one molecule from patent publication US20130177528A1, “COMPOSITIONS AND METHODS FOR INHIBITING VIRAL INFECTION” (WESTERN UNIVERSITY OF HEALTH SCIENCES, priority 2011, published 2013).

Series [1] relates to β-galactosidase-expressing recombinant Adenovirus. In words: Adenovirus infection of HeLa cells (Example 7). The format is cell-based. The settings on record: pre-incubated 90 min. The protocol: HeLa cells were infected with a β-galactosidase-expressing recombinant Adenovirus were pre-incubated with CN at (1) the dilution indicated in FIG. 11, panel A (stock concentration 22 nM) or (2) the concentrations indicated in FIG. 11, panel B, or mock treated with 1 X phosphate saline buffer for 90 min at room temperature. After 12 hr, the cells were washed, permeabilized and incubated with ONPG substrate (3.0 mg/ml) for quantitation of β-galactosidase activity expressed from the input viral genome. Positive (Pos) infected with virus alone; Negative (Neg) uninfected control. The enzymatic activity was measured at an optical density of 410 nm (OD 410).

Series [2] deals with HSV-1 (KOS) gL86. In words: HSV-1 entry into CHO-K1 cells expressing gD receptors, virus pre-incubated with CN (Example 2). The format is cell-based, herpes simplex virus type-1. Conditions: virus 30 pfu/cell pre-incubated 90 min, read after 6 hr. The protocol: (§1) Viral Entry Assay. Viral entry assays were based on quantitation of β-galactosidase expressed from the viral genome in which β-galactosidase expression is inducible by HSV infection. Cells were transiently transfected in 6-well tissue culture dishes, using Lipofectamine 2000 (In vitrogen Corp) with plasmids expressing HSV-1 entry receptors (necitn-1, HVEM and 3-OST-3 expression plasmids) at 1.5 μg per well in 1 ml. At 24 hr post-transfection, cells were re-plated in 96-well tissue culture dishes (2×10^4 cells per well) at least 16 hr prior to infection. Cells were washed and exposed to serially dilute pre-incubated virus with […] or with 1×PBS at two fold dilutions for 2 hr at room temperature. In a parallel experiment the cells were also pre-incubated with NBE for 2 hr at room temperature before infection with virus. Later the cells were washed with 1×PBS and allowed 6 hr at 37° C. before solubilization in 100 μl of PBS containing 0.5% NP-40 and the -galactosidase substrate, o-nitro-phenyl-D-galactopyranoside (ONPG; ImmunoPure, PIERCE, Rockford, Ill., 3 mg/ml). The enzymatic activity was monitored at 410 nm by spectrophotometry at several time points after the addition of ONPG in order to define the interval over which the generation of the product was linear with time. Microscopy was performed using 20×objective of the microscope (Nikon). The slide book version 3.0 was used for images. All experiments were repeated a minimum of three times.
CN blocks herpes simplex virus type-1 (HSV-1) entry into CHO-K1 cells expressing gD receptors. […] After 6 hr at 37° C., the cells were washed, permeabilized with 100 μl of PBS containing 0.5% NP-40 and incubated with ONPG substrate (3.0 mg/ml) for quantitation of β-galactosidase activity expressed from the input viral genome. The enzymatic activity was measured at an optical density of 410 nm (OD 410).

The subject of series [3] is HSV-1 strains F, G and MP. Put plainly: Entry of clinical HSV-1 strains into nectin-1 CHO Ig8 cells, cells pre-incubated with CN (Example 10). The settings on record: nectin-1 CHO Ig8 cells pre-incubated with 10 μM, MP at 25 pfu/cell, 6 h. Format: cell-based, herpes simplex virus type-1. Here is the method: (A) In this experiment nectin-1 Chinese hamster ovary (CHO) Ig8 cells that express β-galactosidase upon viral entry were pre-treated with 10 μM contortrostatin (CN; indicated as treated [Tr]) or mock treated (indicated as untreated [Un]) with phosphate saline buffer for 90 min at room temperature followed by infection using clinical isolates of herpes simplex virus type-1 (HSV-1; F,G, and MP at 25 pfu/cell) for 6 h. The viral entry blocking was measured by o-nitro-phenyl-β-o-galactopyranoside (ONPG) assay as previously described. Error bars represent SD. (B) Confluent monolayers of HeLa cells were infected with HSV-1 (804) strain at 0.01 PFU/cell in presence (panel i) and absence (panel ii) of CN for 2 h at 37° C. Viral replication in HeLa cells were visualized 24 h post-infection for plaques. a=significant differences from corresponding mock-treated controls (P<0.05, t-test).
The next question was to evaluate the broader significance of CN as an anti-HSV agent. Therefore the ability of CN to block viral entry in different clinical virulent strains of HSV-1 (F, G and MP) was tested. Here, nectin-1 expressing CHO Ig8 cells that express β-galactosidase upon viral entry were used. The cells were preincubated with CN at 10 μM and then infected with clinical isolates of HSV-1.

Series [4] relates to HSV-1 (KOS) gL86. In words: HSV-1 entry into gD receptor expressing CHO-K1 cells, cells pre-incubated with CN (Example 8). Conditions: for HSV-1 viral entry (β-galactosidase activity, OD 410): 25 pfu/cell, 6 h. Format: cell-based, herpes simplex virus type-1. Here is the method:
In this experiment, Chinese hamster ovary (CHO-K1) cells expressing glycoprotein D (gD) receptors: (A) 3-OST-3, (B) herpesvirus entry mediator and (C) nectin-1 were pre-incubated with contortrostatin (CN) at indicated concentrations or mock-treated (positive control [+]) with phosphate saline buffer for 90 min at room temperature. This treatment was followed by infection with β-galactosidase-expressing recombinant virus herpes simplex virus type-1 (HSV-1; KOS) gL86 (25 pfu/cell). Uninfected cells were kept as negative control (−). After 6 h, the cells were washed, permeabilized and incubated with o-nitro-phenyl-β-o-galactopyranoside (ONPG) substrated (3.0 mg/ml) for quantitation of β-galactosidase activity expressed from the input viral genome. The enzymatic activity was measured at an optical density of 410 nm (OD 410). Error bars represent SD. a=significant difference from controls and/or treatments (P<0.05, t-test).
as §1
To determine the effect of CN on HSV-1 entry, we first tested the ability of HSV-1 in the presence and absence of CN to infect CHO-KI cells expressing gD receptors. HSV-1 entry into cells was determined by using β-galactosidase expressing HSV-1 reporter virus (gL86).

B1: contortrostatin (protein)
chain: DAPANPCCDAATCKLTTGSQCADGLCCDQCKFMKEGTVCRRARGDDLDDYCNGISAGCPRNPFHA
Take B1: in series [1] (12 hr), the “Adenovirus infection of HeLa cells (β-galactosidase activity, OD 410)” value was “blocks infection”. For the same molecule, the concentration for half-maximal inhibition (IC50) in series [1] (β-galactosidase read after 12 hr) is 2.75 nM. In addition, the “HSV-1 viral entry (β-galactosidase activity, OD 410)” value in series [2] (CHO-K1 cells expressing 3-OST-3) is recorded as “blocked viral entry”; in series [2] (CHO-K1 cells expressing HVEM) it was “blocked viral entry”; in series [2] (CHO-K1 cells expressing nectin-1), “blocked viral entry”; in series [4] (CHO-K1 cells expressing 3-OST-3 pre-incubated 90 min), “significantly blocked viral emry in a dose-dependent manner”; in series [4] (CHO-K1 cells expressing HVEM pre-incubated 90 min), “significantly blocked viral emry in a dose-dependent manner”; in series [4] (CHO-K1 cells expressing nectin-1 pre-incubated 90 min), “significantly blocked viral emry in a dose-dependent manner”. Moreover, the “entry of clinical HSV-1 strains (ONPG assay)” value in series [3] is reported as “blocked the entry of different strains of HSV-1”. Moreover, the “concentrations at which entry blocking activity was pronounced” value in series [4] (gD-receptor expressing CHO-K1 cells) is given as “micromolar concentrations”.
